Source: patent publication US20050227302A1, “Induction of apoptosis via ARTS-IAP complexes” (priority 2004, published 2005)

Tests used:
K562 cells = assay: Caspase 3 activity assay in ARTS-transfected K562 cells; format: cell-based
Protocol: (§1) K562 and HL-60 cells were grown in RPMI 1640 medium. A549, COS-7 cells were grown in Dulbecco's modified Eagle medium (DMEM) with 4.5 grams/liter (g/L) D-glucose. All cells were grown at 37° C. in a 5% CO2 atmosphere. All media were supplemented with 10% fetal calf serum (FCS), penicillin (100 U/ml), streptomycin (100 micrograms (μg)/ml) and […] millimolar [mM]) (Biological Industries, Israel). pEF1-AU5 and pEF1-AU5-ARTS constructs were used for all ARTS transient transfection experiments. An AU5 tag was attached to the N' terminus of ARTS as described in ([…] et al, Nat Cell Biol 2: 915-921, 2000). The […] construct was generated by replacing three amino acids ([…]) at the GTP binding site, using site-directed mutagenesis (QuickChangeTM, Stratagene) with the primer: [NT] No: 1). COS-7, K562 and HL-60 cells were transiently transfected using electroporation (EasyjectTM plus-Equibio). A549 cells were transiently transfected using lipofectaminTM (Invitrogen) according to the manufacturer's protocol. The following apoptotic agents were used: TGF-beta (10 ng/ml) for 24 hours in medium containing 1% FCS; […] etoposide for 2 or 16 hours (Sigma); staurosporine (STS) ([…]) for 0-3 hours (Sigma); and arabinoside-c (ara-C, cytosar) (Pharmacia) at […] for 4 hours. In the case of transiently transfected cells, agents were added forty hours after transfections. […]

CIAP = assay: Interaction of ARTS with CIAP; format: binding
XIAP [1] = assay: XIAP protein levels by Western blot in COS-7 cells; format: cell-based, African Green Monkey
Protocol: Protein extracts were prepared with lysis buffer (150 mM NaCl, 50 mM Tris-HCl (pH 8), 1% NP-40, 0.5% deoxycholate acid) with protease inhibitors. Lysates containing equal amounts of total protein were pre-cleared overnight with 1 mg mouse IgG (Sigma) coupled with protein A/G-Sepharose mix (Amersham Biosciences) and the beads centrifuged. Supernatants were immuno-precipitated using 5 μl of anti-ARTS antibody for 4 h, anti-XIAP antibody, rabbit anti-myc antibody, or mouse IgG (negative control). Protein A/G Sepharose beads were added for 1 hour and washed four times with PBS. Antibodies against XIAP (as above), Myc (Santa Cruz), or anti-ARTS (NT) antibodies directed against the common N′ terminus of ARTS and H5 (ProSci Incorporated) were used for Western blot.
(§2) Stably transfected COS-7 pE-ARTS cells were generated using the pEF1-IRES vector (Hobbs S et al, Biochem Biophys Res Commun 252: 368-372, 1998). The construct contains an EF-1 promoter followed by a multi cloning site, an EMC (Encephalomyocarditis virus) internal ribosome entry sites (IRES), and a puromycin resistance gene. AU5-tagged ARTS was inserted into the XhoI site downstream of the EF-1 promoter. The construct was stably transfected into COS-7 cells. The cells were maintained in medium containing 4 μg/ml puromycin.
Cells were treated for 2 hours with […] of the proteasome inhibitor (MG132, Calbiochem) prior to induction of apoptotis.

COS-7 cells [2] = assay: Immunofluorescence of ARTS and XIAP localization in COS-7 cells; format: cell-based, African Green Monkey; details: apoptotic cells over-expressing ARTS versus not over-expressing
Protocol: Cells were fixed with 4% paraformaldehyde in PBS for 20 min at room temperature, washed with PBS, permeabilized with 0.5% Triton-X in PBS for 5 min, and incubated with primary antibodies for 2 hours at room temperature (rabbit polyclonal anti-ARTS (1:20,000; Sigma), monoclonal anti-ARTS, and/or monoclonal anti-XIAP (1:500; used in subsequent Examples). Cells were washed three times with PBS/0.1% Triton-X and incubated with FITC conjugated anti-mouse and Rhodamin^TX-conjugated anti-rabbit secondary antibodies (Jackson). Images were analyzed using a confocal laser microscope (Zeiss LSM 510). Mitochondria were visualized with MitoTracker® Red CMXRos (Molecular Probes/Invitrogen).
For caspase inhibition, we added […] of BOC-Asp(Ome)CH2F (Enzyme Systems Products) one hour prior to addition of the apoptotic agents.

A549 cells = assay: Caspase 3 activity assay in ARTS-transfected A549 cells; format: cell-based
Protocol: as §1

XIAP [3] = target: T1, XIAP (Homo sapiens, UniProt P98170); assay: In vitro binding assay, recombinant ARTS with GST-XIAP; details: GST-XIAP and purified recombinant ARTS protein, GST alone as negative control
T1 construct: made in house; host or cells: bacteria (pGEX-XIAP plasmid obtained from Dr. Colin S. Duckett)
Protocol: Recombinant ARTS protein was generated with the TNT-Quick Coupled Transcription/Translation System™ (Promega) and incubated overnight at 4° C. with either recombinant GST-XIAP bound to glutathione beads, or with GST alone bound to glutathione beads, followed by Western blot with anti-ARTS or anti-GST antibody (Gibco).

COS-7 cells [4] = assay: Apoptosis assays (TUNEL, anti-H2A.X) in COS-7 cells; format: cell-based, African Green Monkey; details: COS-7 cells stably transfected with an ARTS construct
Protocol: Apoptotic cells were detected using the anti-H2A.X antibody (Upstate; Paull, et al., 2000) or TUNEL. For TUNEL assays, COS-7 cells were transiently transfected with AU5-ARTS, AU5-ARTSΔC, AU5-ARTSmGTP and AU5-H5. Twenty-four hours after transfection, the cells were treated with staurosporine (STS) ([…]) for 1 or 3 hours, then fixed and permeabilized. Apoptosis levels were determined using the TUNEL. In situ™ cell death detection TMR kit (Roche) according to the manufacturer's protocol. All slides were coded and experiments were performed in a blind manner.
as §2

T1 sequence (P98170 whole entry): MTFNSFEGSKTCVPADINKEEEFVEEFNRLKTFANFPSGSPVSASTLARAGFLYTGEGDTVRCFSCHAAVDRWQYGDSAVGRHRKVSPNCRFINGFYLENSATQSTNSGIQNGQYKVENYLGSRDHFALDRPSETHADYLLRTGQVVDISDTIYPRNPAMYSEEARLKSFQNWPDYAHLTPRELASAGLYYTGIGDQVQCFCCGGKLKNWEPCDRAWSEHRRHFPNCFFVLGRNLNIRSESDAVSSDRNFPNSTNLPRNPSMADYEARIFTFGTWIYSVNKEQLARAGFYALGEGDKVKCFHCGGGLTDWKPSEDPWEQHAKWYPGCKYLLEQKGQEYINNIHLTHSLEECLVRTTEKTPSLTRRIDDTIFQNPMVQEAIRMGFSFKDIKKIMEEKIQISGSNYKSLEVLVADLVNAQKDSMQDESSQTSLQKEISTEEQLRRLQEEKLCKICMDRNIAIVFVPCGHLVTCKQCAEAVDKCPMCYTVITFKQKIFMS

B1: AU5-ARTS (other)
chain: MIKRFLEDTTDDGELSKFVKDFSGNASCHPPEAKTWASRPQVPEPRPQAPDLYDDDLEFRPPSRPQSSDNQQYFCAPAPLSPSARPRSPWGKLDPYDSSEDDKEYVGFATLPNQVHRKSVKKGFDFTLMVAGESGLGKSTLVNSLFLTDLYRDRKLLGAEERIMQTVEITKHAVDIEEKGVRLRLTIVDTPGFGDAVNNTECWKPVAEYIDQQFEQYFRDESGLNRKNIQDNRVHCCLYFISPFGHGYGPSLRLLAPPGAVKGTGQEHQGQGCH
notes: Expressed in transfected COS-7 cells and used as lysate or stained in cells; also called pEF1-AU5-ARTS; AU5-tagged ARTS; not shown: AU5 tag attached to the N' terminus of ARTS
Question: How did the caspase-3 activity (K562 cells; expression of ARTS in the absence of pro-apoptotic stimuli, K562 cells) turn out when B1 was run?
Answer: little or no effect

Question: And the caspase-3 activity (K562 cells; over-expression of ARTS, K562 cells treated with ara-C)?
Answer: increased caspase-3 activity

Question: And the “interaction with CIAP” value (CIAP)?
Answer: interact with ARTS

Question: And the “amount of XIAP” value (XIAP [1]; COS-7 cells transiently transfected with pcDNA3-myc-XIAP and AU5-ARTS versus XIAP alone)?
Answer: significantly decreased

Question: What about the “levels of XIAP” value (XIAP [1]; COS-7 pE-ARTS cells stably expressing high levels of ARTS) of the same molecule?
Answer: significantly reduced levels of XIAP

Question: And the XIAP protein levels (XIAP [1]; transiently transfected COS-7 cells treated with 1 mM staurosporin (STS) for 0, 2 or 5 hours)?
Answer: reduced XIAP protein levels

Question: And the “XIAP staining in the nucleus” value (COS-7 cells [2])?
Answer: significantly higher levels in the nucleus

Question: And the caspase-3 activity (A549 cells; expression of ARTS in the absence of pro-apoptotic stimuli, A549 cells)?
Answer: little or no effect

Question: What about the caspase-3 activity (A549 cells; over-expression of ARTS, A549 cells treated with TGF-β) of the same molecule?
Answer: increased caspase-3 activity

Question: What about the “ARTS-XIAP binding, direct or not” value (XIAP [3]) of the same molecule?
Answer: direct

Question: What about the “apoptotic marker H2A.X” value (COS-7 cells [4]) of the same molecule?
Answer: high levels of the apoptotic marker H2A.X
